The results in this text go back to patent US20220331401A1 (Stanford University, published 2022).

Experiment [1] concerns the target T1, recombinant human CLCF1 (cardiotrophin-like cytokine factor 1), residues 28-225 (UniProt Q9UBD9 28-225).
T1 chain: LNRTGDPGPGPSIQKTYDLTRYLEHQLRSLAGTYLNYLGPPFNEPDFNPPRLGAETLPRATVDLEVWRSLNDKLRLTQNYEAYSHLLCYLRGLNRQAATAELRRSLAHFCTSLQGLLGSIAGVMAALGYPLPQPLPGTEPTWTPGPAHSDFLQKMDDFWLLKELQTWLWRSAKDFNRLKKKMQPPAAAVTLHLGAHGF
Nature of the experiment: yeast display flow cytometry; apparent Kd, ±0.006.

Experiment [2] has as its target T1, recombinant human CLCF1 …. The experiment in a line: yeast display flow cytometry; apparent Kd, ±0.4.
The target in experiment [3] is T1, recombinant human CLCF1 …. The experiment in a line: yeast display flow cytometry; apparent Kd, ±0.02. (In general: Flow cytometry measures light scatter and fluorescence of single cells or particles in a stream.)
Experiment [4] concerns the target T1, recombinant human CLCF1 …. Nature of the experiment: yeast display flow cytometry; apparent Kd, ±0.07.
Experiment [5] deals with T1, recombinant human CLCF1 …. Nature of the experiment: yeast display flow cytometry; apparent Kd, ±5.
Experiment [6] addresses T1, recombinant human CLCF1 …. The experiment in a line: ELISA; ±6. On the technique in general: An ELISA detects its analyte on a solid surface through an enzyme-linked reagent.
Experiment [7] concerns the target T2, recombinant human CLCF1 (cardiotrophin-like cytokine factor 1), residues 28-225 (human, UniProt Q9UBD9 28-225).
T2 construct: Only one recombinant CLCF1 preparation is described; also called CLCF1-His; not shown: His tag (named CLCF1-His, detected with anti-HIS antibody)
T2 sequence: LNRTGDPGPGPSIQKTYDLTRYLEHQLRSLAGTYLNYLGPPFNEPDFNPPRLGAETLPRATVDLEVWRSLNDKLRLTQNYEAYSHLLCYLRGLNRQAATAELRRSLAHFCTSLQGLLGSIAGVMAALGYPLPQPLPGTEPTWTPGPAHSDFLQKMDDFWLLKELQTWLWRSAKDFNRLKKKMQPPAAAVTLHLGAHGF
Nature of the experiment: microtiter plate-based assay (capture of the CNTFR construct, detection with anti-CLCF1).

Experiment [8] deals with T3, recombinantly produced CNTF (ciliary neurotrophic factor) (Homo sapiens (Human), UniProt P26441 1-200).
T3 sequence: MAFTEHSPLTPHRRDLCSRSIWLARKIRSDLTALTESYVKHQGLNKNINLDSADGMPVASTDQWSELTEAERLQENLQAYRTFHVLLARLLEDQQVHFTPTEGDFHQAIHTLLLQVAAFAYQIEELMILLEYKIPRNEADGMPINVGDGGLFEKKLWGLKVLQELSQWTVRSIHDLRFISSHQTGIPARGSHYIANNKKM
The experiment in a line: microtiter plate-based binding assay.

The target in experiment [9] is T4, mouse CLCF1 (mouse, UniProt Q9QZM3 28-225).
T4 sequence (looked up): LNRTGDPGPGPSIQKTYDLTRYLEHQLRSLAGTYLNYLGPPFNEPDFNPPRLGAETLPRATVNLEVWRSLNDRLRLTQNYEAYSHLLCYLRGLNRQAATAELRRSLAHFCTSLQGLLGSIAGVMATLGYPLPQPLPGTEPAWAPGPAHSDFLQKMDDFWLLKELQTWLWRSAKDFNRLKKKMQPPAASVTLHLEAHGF
Nature of the experiment: microtiter plate-based binding assay.

Experiment [10] concerns the target T5, mouse CLCF1 (mouse, UniProt Q9QZM3 28-225).
T5 chain: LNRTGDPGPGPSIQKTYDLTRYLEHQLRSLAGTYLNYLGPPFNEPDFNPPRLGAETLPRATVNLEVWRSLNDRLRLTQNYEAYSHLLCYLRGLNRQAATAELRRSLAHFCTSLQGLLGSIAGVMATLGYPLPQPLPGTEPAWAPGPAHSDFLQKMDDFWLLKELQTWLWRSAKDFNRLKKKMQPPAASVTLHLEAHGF
The experiment in a line: ELISA; ±7.

Experiment [11] addresses T1, recombinant human CLCF1 …. Nature of the experiment: ELISA; ±4.
Experiment [12] concerns the target T2, recombinant human CLCF1 …. Nature of the experiment: yeast display, flow cytometry titration with CLCF1. The source says: Directed evolution was used to engineer a soluble CNTFR variant with stronger affinity for CLCF1 and lack of binding to gp130 and LIFR. It was hypothesized that such a molecule would act as an efficient ligand trap and antagonize CLCF1-mediated oncogenic signaling. To develop a high-affinity receptor decoy, DNA encoding the extracellular domain of CNTFR was subjected to random mutagenesis via error-prone PCR. […] The library was screened to enrich for variants with increased CLCF1 binding using flow cytometry. After 3 rounds of screening, T174P and S237F appeared as consensus mutations, with substantial diversity observed at other amino acid positions. To probe additive effects of these mutations, 20 randomly selected distinct clones from the sorted populations were shuffled using the Staggered Extension Process (StEP) method to create a second library. A combination of equilibrium binding and kinetic off-rate screens were used to sort this library to impose increased screening stringency (FIG. 2, panel C). […]
Yeast displaying the CNTFR constructs were incubated with varying concentrations of CLCF1 for 12 h at room temperature to reach equilibrium binding. […] Then samples were washed and analyzed by flow cytometry using BD Accuri flow cytometer. Samples were analyzed on BD Bioscience software, and data were analyzed using FlowJo software (Treestar Inc).

Experiment [13] concerns the target T1, recombinant human CLCF1 …. The experiment in a line: yeast display flow cytometry; apparent Kd, ±3.
Experiment [14] concerns the target T1, recombinant human CLCF1 …. Nature of the experiment: yeast display flow cytometry; apparent Kd, ±0.003.

B1: Variant 3 (T174P, S237F, I287F) (protein)
chain: MAAPVPWACCAVLAAAAAVVYAQRHSPQEAPHVQYERLGSDVTLPCGTANWDAAVTWRVNGTDLAPDLLNGSQLVLHGLELGHSGLYACFHRDSWHLRHQVLLHVGLPPREPVLSCRSNTYPKGFYCSWHLPTPTYIPNTFNVTVLHGSKIMVCEKDPALKNRCHIRYMHLFSPIKYKVSISVSNALGHNATAITFDEFTIVKPDPPENVVARPVPSNPRRLEVTWQTPSTWPDPEFFPLKFFLRYRPLILDQWQHVELSDGTAHTITDAYAGKEYIIQVAAKDNEFGTWSDWSVAAHATPWTEEPRHLTTEAQAAETTTSTTSSLAPPPTTKICDPGELGSGGGPSAPFLVSVPITLALAAAAATASSLLI
Take B1: the Kd in [1] is 0.049 nM.

B2: Variant 1 (S237F) (protein)
chain: MAAPVPWACCAVLAAAAAVVYAQRHSPQEAPHVQYERLGSDVTLPCGTANWDAAVTWRVNGTDLAPDLLNGSQLVLHGLELGHSGLYACFHRDSWHLRHQVLLHVGLPPREPVLSCRSNTYPKGFYCSWHLPTPTYIPNTFNVTVLHGSKIMVCEKDPALKNRCHIRYMHLFSTIKYKVSISVSNALGHNATAITFDEFTIVKPDPPENVVARPVPSNPRRLEVTWQTPSTWPDPEFFPLKFFLRYRPLILDQWQHVELSDGTAHTITDAYAGKEYIIQVAAKDNEIGTWSDWSVAAHATPWTEEPRHLTTEAQAAETTTSTTSSLAPPPTTKICDPGELGSGGGPSAPFLVSVPITLALAAAAATASSLLI
Regarding B2, the Kd in experiment [2] was 41 nM.

B3: Variant 2 (T174P, S237F) (protein)
chain: MAAPVPWACCAVLAAAAAVVYAQRHSPQEAPHVQYERLGSDVTLPCGTANWDAAVTWRVNGTDLAPDLLNGSQLVLHGLELGHSGLYACFHRDSWHLRHQVLLHVGLPPREPVLSCRSNTYPKGFYCSWHLPTPTYIPNTFNVTVLHGSKIMVCEKDPALKNRCHIRYMHLFSPIKYKVSISVSNALGHNATAITFDEFTIVKPDPPENVVARPVPSNPRRLEVTWQTPSTWPDPEFFPLKFFLRYRPLILDQWQHVELSDGTAHTITDAYAGKEYIIQVAAKDNEIGTWSDWSVAAHATPWTEEPRHLTTEAQAAETTTSTTSSLAPPPTTKICDPGELGSGGGPSAPFLVSVPITLALAAAAATASSLLI
For the molecule B3, the Kd in [3] worked out at 0.89 nM.

B4: Variant 5 (S237F, I287F) (protein)
chain: MAAPVPWACCAVLAAAAAVVYAQRHSPQEAPHVQYERLGSDVTLPCGTANWDAAVTWRVNGTDLAPDLLNGSQLVLHGLELGHSGLYACFHRDSWHLRHQVLLHVGLPPREPVLSCRSNTYPKGFYCSWHLPTPTYIPNTFNVTVLHGSKIMVCEKDPALKNRCHIRYMHLFSTIKYKVSISVSNALGHNATAITFDEFTIVKPDPPENVVARPVPSNPRRLEVTWQTPSTWPDPEFFPLKFFLRYRPLILDQWQHVELSDGTAHTITDAYAGKEYIIQVAAKDNEFGTWSDWSVAAHATPWTEEPRHLTTEAQAAETTTSTTSSLAPPPTTKICDPGELGSGGGPSAPFLVSVPITLALAAAAATASSLLI
Take B4: in [4], the Kd is 0.04 nM.

B5: Neg sort (R110Q, T174P, Y177H, K178N, S237F, I287F) (protein)
chain: MAAPVPWACCAVLAAAAAVVYAQRHSPQEAPHVQYERLGSDVTLPCGTANWDAAVTWRVNGTDLAPDLLNGSQLVLHGLELGHSGLYACFHRDSWHLRHQVLLHVGLPPQEPVLSCRSNTYPKGFYCSWHLPTPTYIPNTFNVTVLHGSKIMVCEKDPALKNRCHIRYMHLFSPIKHNVSISVSNALGHNATAITFDEFTIVKPDPPENVVARPVPSNPRRLEVTWQTPSTWPDPEFFPLKFFLRYRPLILDQWQHVELSDGTAHTITDAYAGKEYIIQVAAKDNEFGTWSDWSVAAHATPWTEEPRHLTTEAQAAETTTSTTSSLAPPPTTKICDPGELGSGGGPSAPFLVSVPITLALAAAAATASSLLI
For the molecule B5, in experiment [5], the Kd came out at 0.014 nM.

B6: soluble eCNTFR with a C-terminal hexahistidine tag (receptor)
chain: QRHSPQEAPHVQYERLGSDVTLPCGTANWDAAVTWRVNGTDLAPDLLNGSQLVLHGLELGHSGLYACFHRDSWHLRHQVLLHVGLPPQEPVLSCRSNTYPKGFYCSWHLPTPTYIPNTFNVTVLHGSKIMVCEKDPALKNRCHIRYMHLFSPIKHNVSISVSNALGHNATAITFDEFTIVKPDPPENVVARPVPSNPRRLEVTWQTPSTWPDPEFFPLKFFLRYRPLILDQWQHVELSDGTAHTIAAAYAGKEYIIQVAAKDNEFGTWSDWSVAAHATPWTEEPRHLTTEAQAAETTTSTTSSLAPPPTTKICDPGELGS
notes: also called eCNTFR-His; not shown: C-terminal hexahistidine tag
As to B6, the Kd in experiment [6] stood at 0.075 nM. Besides, the binding result in experiment [7] was “binds”.

B7: soluble eCNTFR fused to an antibody Fc domain (Fc fusion)
chain: QRHSPQEAPHVQYERLGSDVTLPCGTANWDAAVTWRVNGTDLAPDLLNGSQLVLHGLELGHSGLYACFHRDSWHLRHQVLLHVGLPPQEPVLSCRSNTYPKGFYCSWHLPTPTYIPNTFNVTVLHGSKIMVCEKDPALKNRCHIRYMHLFSPIKHNVSISVSNALGHNATAITFDEFTIVKPDPPENVVARPVPSNPRRLEVTWQTPSTWPDPEFFPLKFFLRYRPLILDQWQHVELSDGTAHTIAAAYAGKEYIIQVAAKDNEFGTWSDWSVAAHATPWTEEPRHLTTEAQAAETTTSTTSSLAPPPTTKICDPGELGSRRLEPRGPTIKPCPPCKCPAPNLLGGPSVFIFPPKIKDVLMISLSPIVTCVVVDVSEDDPDVQISWFVNNVEVHTAQTQTHREDYNSTLRVVSALPIQHQDWMSGKEFKCKVNNKDLPAPIERTISKPKGSVRAPQVYVLPPPEEEMTKKQVTLTCMVTDFMPEDIYVEWTNNGKTELNYKNTEPVLDSDGSYFMYSKLRVEKKNWVERNSYSCSVVHEGLHNHHTTKSFSRTPGK
notes: The tie is the identical set of eight mutations plus an Fc domain; also called eCNTFR-Fc
With B7, the figures for the binding result (in experiment [8]; with mouse CLCF1 [9]; in experiment [7]) were “no binding”, “binds” and “binds”, respectively. Further, the Kd was 0.131 nM with mouse CLCF1 [10] and 0.063 nM in experiment [11].

B8: yeast-displayed CNTFR variant 4 (R110Q, T174P, S237F, I287F) (receptor)
chain: AVVYAQRHSPQEAPHVQYERLGSDVTLPCGTANWDAAVTWRVNGTDLAPDLLNGSQLVLHGLELGHSGLYACFHRDSWHLRHQVLLHVGLPPQEPVLSCRSNTYPKGFYCSWHLPTPTYIPNTFNVTVLHGSKIMVCEKDPALKNRCHIRYMHLFSPIKYKVSISVSNALGHNATAITFDEFTIVKPDPPENVVARPVPSNPRRLEVTWQTPSTWPDPEFFPLKFFLRYRPLILDQWQHVELSDGTAHTITDAYAGKEYIIQVAAKDNEFGTWSDWSVAAHATPWTEEPRHLTTEAQAAETTTSTTSSLAPPPTTKICDPGELGS
notes: not shown: Aga2p fusion partner and linkers of the pCTCON2 yeast display plasmid; c-Myc tag used to detect expression
Turning to B8, the results for the Kd in [12], in experiment [13] and in [14] were 0.02 nM, 0.019 nM and 0.019 nM, respectively.
